{"source": "patent US20210285013A1", "target": "human ApoB100 (human) (UniProt P04114)", "sequence (P04114 28-4563 limits assumed)": "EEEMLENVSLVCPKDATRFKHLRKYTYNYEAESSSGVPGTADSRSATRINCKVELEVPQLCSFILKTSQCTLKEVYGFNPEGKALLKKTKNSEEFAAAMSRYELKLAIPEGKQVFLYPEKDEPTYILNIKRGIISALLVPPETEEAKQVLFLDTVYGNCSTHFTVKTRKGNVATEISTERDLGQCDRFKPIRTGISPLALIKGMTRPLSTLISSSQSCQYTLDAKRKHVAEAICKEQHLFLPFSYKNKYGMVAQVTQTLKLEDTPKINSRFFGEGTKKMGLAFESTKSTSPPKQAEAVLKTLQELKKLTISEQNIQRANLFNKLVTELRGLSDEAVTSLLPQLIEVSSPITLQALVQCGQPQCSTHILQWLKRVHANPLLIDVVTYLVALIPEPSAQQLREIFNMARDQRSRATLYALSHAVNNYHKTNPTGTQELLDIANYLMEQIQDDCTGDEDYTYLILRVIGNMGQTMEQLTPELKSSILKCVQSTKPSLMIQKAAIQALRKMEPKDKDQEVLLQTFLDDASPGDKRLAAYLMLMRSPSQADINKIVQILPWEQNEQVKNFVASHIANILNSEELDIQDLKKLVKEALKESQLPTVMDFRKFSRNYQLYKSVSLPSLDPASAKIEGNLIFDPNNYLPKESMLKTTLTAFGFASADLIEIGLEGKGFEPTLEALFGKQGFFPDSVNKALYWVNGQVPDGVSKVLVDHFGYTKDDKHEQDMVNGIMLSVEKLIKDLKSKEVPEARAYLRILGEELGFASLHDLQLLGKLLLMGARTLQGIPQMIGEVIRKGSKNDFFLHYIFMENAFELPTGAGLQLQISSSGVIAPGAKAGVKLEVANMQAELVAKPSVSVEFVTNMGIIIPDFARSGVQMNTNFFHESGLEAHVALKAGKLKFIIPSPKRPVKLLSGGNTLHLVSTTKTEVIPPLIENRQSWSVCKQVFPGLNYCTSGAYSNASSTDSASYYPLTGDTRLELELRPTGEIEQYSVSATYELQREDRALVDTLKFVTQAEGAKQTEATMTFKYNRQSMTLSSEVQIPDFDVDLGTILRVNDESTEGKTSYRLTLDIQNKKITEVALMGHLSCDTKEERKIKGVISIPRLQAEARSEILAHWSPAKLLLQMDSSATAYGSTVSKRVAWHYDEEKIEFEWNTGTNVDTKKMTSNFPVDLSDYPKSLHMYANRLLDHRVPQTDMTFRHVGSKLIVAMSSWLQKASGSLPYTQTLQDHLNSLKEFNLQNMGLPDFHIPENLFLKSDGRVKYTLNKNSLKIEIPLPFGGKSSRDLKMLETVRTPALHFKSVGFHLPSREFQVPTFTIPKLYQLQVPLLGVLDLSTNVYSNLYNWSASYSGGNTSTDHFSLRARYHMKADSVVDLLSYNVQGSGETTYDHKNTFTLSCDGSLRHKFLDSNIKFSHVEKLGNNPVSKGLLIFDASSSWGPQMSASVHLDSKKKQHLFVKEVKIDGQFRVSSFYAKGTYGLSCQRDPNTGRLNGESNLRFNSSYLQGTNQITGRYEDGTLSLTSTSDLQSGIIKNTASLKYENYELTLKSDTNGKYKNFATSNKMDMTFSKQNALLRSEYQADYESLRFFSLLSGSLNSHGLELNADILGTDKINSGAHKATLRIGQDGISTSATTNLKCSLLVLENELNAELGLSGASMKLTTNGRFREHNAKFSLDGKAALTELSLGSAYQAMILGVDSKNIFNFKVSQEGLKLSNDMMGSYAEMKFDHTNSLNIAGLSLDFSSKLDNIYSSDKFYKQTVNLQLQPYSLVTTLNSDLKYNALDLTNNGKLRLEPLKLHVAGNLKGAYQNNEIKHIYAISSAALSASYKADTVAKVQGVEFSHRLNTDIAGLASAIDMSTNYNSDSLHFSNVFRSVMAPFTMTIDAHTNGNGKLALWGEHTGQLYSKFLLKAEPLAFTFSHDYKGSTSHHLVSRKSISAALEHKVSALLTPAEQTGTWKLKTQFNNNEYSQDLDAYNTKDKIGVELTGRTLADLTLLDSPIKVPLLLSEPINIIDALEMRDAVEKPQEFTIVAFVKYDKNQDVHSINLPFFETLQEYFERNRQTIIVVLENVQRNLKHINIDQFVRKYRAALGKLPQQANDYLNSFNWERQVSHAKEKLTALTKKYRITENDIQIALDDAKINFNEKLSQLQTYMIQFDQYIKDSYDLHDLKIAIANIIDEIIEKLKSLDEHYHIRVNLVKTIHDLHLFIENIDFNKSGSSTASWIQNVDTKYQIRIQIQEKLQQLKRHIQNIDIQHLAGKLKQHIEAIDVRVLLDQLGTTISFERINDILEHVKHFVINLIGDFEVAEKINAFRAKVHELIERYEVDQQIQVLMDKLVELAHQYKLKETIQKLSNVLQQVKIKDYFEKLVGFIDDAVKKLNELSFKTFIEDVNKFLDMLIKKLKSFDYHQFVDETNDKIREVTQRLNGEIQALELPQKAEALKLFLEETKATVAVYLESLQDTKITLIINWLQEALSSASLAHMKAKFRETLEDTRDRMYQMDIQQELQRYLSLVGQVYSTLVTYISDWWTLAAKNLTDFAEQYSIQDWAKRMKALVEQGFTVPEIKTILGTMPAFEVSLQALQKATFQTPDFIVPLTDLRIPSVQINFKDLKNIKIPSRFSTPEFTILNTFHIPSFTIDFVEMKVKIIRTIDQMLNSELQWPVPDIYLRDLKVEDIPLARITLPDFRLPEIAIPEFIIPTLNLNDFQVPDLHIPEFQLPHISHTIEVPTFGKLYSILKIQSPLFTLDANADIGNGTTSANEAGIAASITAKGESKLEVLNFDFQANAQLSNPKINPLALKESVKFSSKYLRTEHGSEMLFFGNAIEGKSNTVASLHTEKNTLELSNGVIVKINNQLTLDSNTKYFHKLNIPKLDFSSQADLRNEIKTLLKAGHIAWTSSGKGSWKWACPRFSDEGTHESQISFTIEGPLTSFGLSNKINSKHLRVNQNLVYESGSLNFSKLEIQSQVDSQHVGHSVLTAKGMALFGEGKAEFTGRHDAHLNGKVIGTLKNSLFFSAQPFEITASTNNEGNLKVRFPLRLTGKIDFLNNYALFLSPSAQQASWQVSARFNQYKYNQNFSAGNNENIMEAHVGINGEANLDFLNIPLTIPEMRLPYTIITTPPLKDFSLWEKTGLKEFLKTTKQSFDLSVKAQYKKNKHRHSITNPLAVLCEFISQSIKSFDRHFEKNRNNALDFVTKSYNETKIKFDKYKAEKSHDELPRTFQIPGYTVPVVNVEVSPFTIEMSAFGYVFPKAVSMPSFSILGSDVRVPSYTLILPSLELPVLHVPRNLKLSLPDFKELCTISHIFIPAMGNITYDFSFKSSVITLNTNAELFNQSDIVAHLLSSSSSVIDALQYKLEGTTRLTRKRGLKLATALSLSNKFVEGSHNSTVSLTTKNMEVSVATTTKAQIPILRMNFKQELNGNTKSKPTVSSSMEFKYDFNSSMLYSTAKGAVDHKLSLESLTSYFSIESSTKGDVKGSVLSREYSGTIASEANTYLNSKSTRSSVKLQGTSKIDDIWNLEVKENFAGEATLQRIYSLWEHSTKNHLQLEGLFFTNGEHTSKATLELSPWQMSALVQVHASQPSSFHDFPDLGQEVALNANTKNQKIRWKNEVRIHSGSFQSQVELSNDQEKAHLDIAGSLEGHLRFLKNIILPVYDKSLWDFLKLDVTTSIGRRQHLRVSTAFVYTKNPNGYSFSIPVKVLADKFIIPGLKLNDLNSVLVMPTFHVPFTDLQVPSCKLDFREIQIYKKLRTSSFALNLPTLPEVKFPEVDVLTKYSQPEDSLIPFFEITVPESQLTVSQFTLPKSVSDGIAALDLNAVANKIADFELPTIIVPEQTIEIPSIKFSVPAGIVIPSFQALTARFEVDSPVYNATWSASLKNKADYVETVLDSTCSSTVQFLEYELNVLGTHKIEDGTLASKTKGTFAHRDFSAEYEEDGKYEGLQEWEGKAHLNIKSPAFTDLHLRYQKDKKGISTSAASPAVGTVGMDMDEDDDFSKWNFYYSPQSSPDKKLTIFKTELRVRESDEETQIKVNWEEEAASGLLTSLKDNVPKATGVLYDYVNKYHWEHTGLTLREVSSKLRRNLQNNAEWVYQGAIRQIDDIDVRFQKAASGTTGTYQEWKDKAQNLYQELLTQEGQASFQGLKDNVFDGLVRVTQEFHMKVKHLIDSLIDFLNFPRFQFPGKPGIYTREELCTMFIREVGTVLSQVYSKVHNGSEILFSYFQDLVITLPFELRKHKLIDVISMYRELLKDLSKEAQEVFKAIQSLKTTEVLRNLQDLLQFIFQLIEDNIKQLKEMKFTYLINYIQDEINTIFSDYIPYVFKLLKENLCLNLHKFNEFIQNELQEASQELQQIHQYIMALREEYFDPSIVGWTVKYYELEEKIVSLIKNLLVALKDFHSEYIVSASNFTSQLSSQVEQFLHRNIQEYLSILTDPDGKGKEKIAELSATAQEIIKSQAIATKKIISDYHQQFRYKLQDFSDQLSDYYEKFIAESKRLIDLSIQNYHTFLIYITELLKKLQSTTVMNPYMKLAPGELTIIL", "assay": "cell-based or functional assay", "data": [{"substance": "human low density lipoprotein receptor (hLDLR) (from UniProt P01130 22-860)", "values": [{"measurement": "reduction of serum cholesterol in LAHB mice after AAV8.TBG.hLDLR", "value": 30, "unit": "%"}]}]}
